According to US20240409906, “INTEGRASES, LANDING PAD ARCHITECTURES, AND ENGINEERED CELLS COMPRISING THE SAME” (Asimov Inc., published 2024):

T1: Int34 (Staphylococcus lugdunensis HKU09-01)
T1 chain: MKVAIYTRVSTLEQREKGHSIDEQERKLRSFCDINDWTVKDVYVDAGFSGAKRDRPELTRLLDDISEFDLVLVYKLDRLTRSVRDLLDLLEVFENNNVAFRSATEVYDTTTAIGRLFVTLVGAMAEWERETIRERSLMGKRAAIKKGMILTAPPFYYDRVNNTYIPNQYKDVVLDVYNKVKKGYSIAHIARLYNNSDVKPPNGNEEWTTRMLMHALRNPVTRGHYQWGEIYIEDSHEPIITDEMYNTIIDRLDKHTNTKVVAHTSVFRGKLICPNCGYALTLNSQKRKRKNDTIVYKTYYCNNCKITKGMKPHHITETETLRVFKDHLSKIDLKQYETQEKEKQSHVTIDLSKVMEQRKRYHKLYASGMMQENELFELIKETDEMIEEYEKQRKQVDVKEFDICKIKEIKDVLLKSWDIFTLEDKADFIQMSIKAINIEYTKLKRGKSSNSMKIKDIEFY

T2: Int27 (Lactococcus lactis subsp. lactis CV56)
T2 chain: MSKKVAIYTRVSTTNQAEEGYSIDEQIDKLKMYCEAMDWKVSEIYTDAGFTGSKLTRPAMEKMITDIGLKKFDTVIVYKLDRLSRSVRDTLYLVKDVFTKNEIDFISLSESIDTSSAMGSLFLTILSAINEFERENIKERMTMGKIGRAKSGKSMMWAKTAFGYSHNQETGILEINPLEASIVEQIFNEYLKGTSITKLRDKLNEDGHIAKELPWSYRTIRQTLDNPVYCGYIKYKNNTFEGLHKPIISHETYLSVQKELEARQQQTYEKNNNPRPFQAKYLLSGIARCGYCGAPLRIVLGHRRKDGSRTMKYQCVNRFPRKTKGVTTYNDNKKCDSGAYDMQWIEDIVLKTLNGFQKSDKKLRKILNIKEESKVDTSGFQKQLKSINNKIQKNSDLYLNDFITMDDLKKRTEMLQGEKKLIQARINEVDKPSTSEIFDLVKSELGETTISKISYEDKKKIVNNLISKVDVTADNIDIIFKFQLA

T3: Int7 (Geobacillus sp. Y412MC61)
T3 chain: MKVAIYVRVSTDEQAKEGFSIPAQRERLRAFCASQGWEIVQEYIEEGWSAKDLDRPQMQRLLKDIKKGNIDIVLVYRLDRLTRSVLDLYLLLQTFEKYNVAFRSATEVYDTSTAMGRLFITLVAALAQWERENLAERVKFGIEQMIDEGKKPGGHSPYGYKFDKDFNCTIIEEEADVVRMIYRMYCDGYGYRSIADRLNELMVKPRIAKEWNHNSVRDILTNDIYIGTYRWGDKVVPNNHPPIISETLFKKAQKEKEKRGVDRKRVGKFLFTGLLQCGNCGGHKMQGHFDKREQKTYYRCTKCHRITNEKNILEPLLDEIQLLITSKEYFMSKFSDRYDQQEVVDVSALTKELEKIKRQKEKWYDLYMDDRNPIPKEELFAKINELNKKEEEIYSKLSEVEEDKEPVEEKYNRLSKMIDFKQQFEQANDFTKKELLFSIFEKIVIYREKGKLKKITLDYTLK

B1: Int34 attB (dsDNA)
DNA 1: AATCTGCAAACATGTATGGCGGTACATGTATCAACATTGGTTGTATTCCTACAAAGACACTCAT
DNA 2: ATGAGTGTCTTTGTAGGAATACAACCAATGTTGATACATGTACCGCCATACATGTTTGCAGATT
B2: Int27 attB (dsDNA)
DNA 1: AATACTAATAATAGCTAGTACAATTAACATCTCTATCAAAGTAAAAGCTTTTAGCTCTTTCT
DNA 2: AGAAAGAGCTAAAAGCTTTTACTTTGATAGAGATGTTAATTGTACTAGCTATTATTAGTATT
B3: Int34 attP (dsDNA)
DNA 1: ATTTTTGTACGGAAGTAGATACTATCTTTCAATATCCATGTTACTTAGTGCCATACAAAAA
DNA 2: TTTTTGTATGGCACTAAGTAACATGGATATTGAAAGATAGTATCTACTTCCGTACAAAAAT
B4: Int7 attP (dsDNA)
DNA 1: GTGTTATAAACCTGTGTGAGAGTTAAGTTTACATGCCTAACCTTAACTTTTACGCAGGTTCAGCTT
DNA 2: AAGCTGAACCTGCGTAAAAGTTAAGGTTAGGCATGTAAACTTAACTCTCACACAGGTTTATAACAC
B5: Int7 attB (dsDNA)
DNA 1: AGACGAGAAACGTTCCGTCCGTCTGGGTCAGTTGGGCAAAGTTGATGACCGGGTCGTCCGTT
DNA 2: AACGGACGACCCGGTCATCAACTTTGCCCAACTGACCCAGACGGACGGAACGTTTCTCGTCT

Assays:
Assay in all cases: cell_activity; attB x attP EGFP inversion reporter, HEK293FT
Int34 = biological target: T1, Int34; settings: tags: C-terminal GS linker-SV40 NLS; chain copies: 4
Int27 = biological target: T2, Int27; settings: tags: C-terminal GS linker-SV40 NLS
Int7 = biological target: T3, Int7; settings: tags: C-terminal GS linker-SV40 NLS

| Binder | binding signal (Int34) | binding signal (Int7) | other results |
| --- | --- | --- | --- |
| B1 | 0.408 fraction of Bxb1 |  |  |
| B2 |  |  | binding signal (Int27): 2.2 fraction of Bxb1 |
| B3 | 0.408 fraction of Bxb1 |  |  |
| B4 |  | 0.096 fraction of Bxb1 |  |
| B5 |  | 0.096 fraction of Bxb1 |  |
